The values below come from article PMC3116947.

Where a chain is given by its changes, count along the chain named. Several values for one entry are separate records, joined by “and”; a condition that tells them apart may be missing. Equal entries are not always repeated.

Usually Kd stands for the constant that tells how readily two partners part at equilibrium. A higher Kd goes with weaker binding.

Assay [1] has as its target Gab1 G1 peptide (Homo sapiens). Nature of the assay: ITC.
In assay [2] the target is Gab1 G2 peptide (Homo sapiens). Put plainly: ITC. For orientation: ITC needs no label: the signal is the heat of the interaction.

B1: Grb2 cSH3, P62993 (protein)
chain: QQPTYVQALFDFDPQEDGELGFRRGDFIHVMANSDPNWWKGACHGQTGMFPRNYVTPVNR
Consider B1, for which the equilibrium dissociation constant (Kd) in assay [1] is 171 µM.

B2: Grb2 cSH3, P62993 (protein)
chain: B1 chain with E16A, A32D
B2: the figures for the equilibrium dissociation constant (Kd) in assay [2] and in assay [1] were 158 µM and 444 µM, respectively.

B3: Grb2 cSH3, P62993 (protein)
chain: B1 chain with A32D
As for B3, the Kd in assay [2] is 42 µM; in assay [1] it was 200 µM and 152 µM and 50 µM.
